The target in test [1] is T1, human 4-1BB on CHO-K1 cells (human, UniProt Q07011 24-255). The test is described as follows: FACS. On the technique in general: A flow cytometer gives signals particle by particle.
Target sequence in this assay (Q07011 24-255): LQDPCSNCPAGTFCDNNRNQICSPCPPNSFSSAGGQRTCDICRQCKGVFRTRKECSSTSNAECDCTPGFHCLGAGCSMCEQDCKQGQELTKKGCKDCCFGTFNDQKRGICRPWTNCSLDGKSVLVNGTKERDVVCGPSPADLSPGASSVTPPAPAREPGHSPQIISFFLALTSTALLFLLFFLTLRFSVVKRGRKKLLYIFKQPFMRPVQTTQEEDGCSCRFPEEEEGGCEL
For test [2], the target named is T1, human 4-1BB on CHO-K1 cells. The test is described as follows: FACS; FIG. 11K.
Target sequence in this assay (Q07011 24-255): as above
Test [3] shares this target. In words: FACS; FIG. 11L.
Target sequence in this assay (Q07011 24-255): as above
The target is the same in test [4]. In words: FACS; FIG. 11M.
Target sequence in this assay (Q07011 24-255): as above
Test [5] shares this target. The test is described as follows: FACS; FIG. 11E.
Test [6] shares this target. In words: FACS; FIG. 11F.
Test [7] has the same target. In words: FACS; FIG. 11G.
Test [8] has the same target. In words: FACS; FIG. 11B.
For test [9] the target is unchanged. In words: FACS; FIG. 11C.
For test [10] the target is unchanged. In words: FACS; FIG. 11D.
Test [11] has the same target. The test is described as follows: FACS blocking of 4-1BBL; FIG. 14C.
The target is the same in test [12]. In words: FACS blocking of 4-1BBL; FIG. 14D.
Test [13] shares this target. The test is described as follows: FACS blocking of 4-1BBL; FIG. 14A.
For test [14] the target is unchanged. In words: FACS blocking of 4-1BBL; FIG. 14B.
Test [15] addresses T2, human PD-L1 on CHO-K1 cells (human, UniProt Q9NZQ7 19-290). In words: FACS; MDA-MB-231 cells; FIG. 24C.
Test [16] deals with T2, human PD-L1 on CHO-K1 cells. The test is described as follows: FACS; MDA-MB-231 cells; FIG. 24D.
Test [17] shares this target. In words: FACS; MDA-MB-231 cells; FIG. 24E.

T2 sequence (Q9NZQ7 19-290): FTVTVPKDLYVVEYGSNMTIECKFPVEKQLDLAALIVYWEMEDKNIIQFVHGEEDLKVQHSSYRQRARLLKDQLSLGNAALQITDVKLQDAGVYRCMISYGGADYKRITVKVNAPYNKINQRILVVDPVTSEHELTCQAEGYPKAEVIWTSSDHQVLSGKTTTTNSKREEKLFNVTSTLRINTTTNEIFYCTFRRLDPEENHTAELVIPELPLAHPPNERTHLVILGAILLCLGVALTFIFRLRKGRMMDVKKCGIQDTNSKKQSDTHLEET

B1: Urelumab (antibody, V domains shown)
VH: QVQLQQWGAGLLKPSETLSLTCAVYGGSFSGYYWSWIRQSPEKGLEWIGEINHGGYVTYNPSLESRVTISVDTSKNQFSLKLSSVTAADTAVYYCARDYGPGNYDWYFDLWGRGTLVTVSS
VL: EIVLTQSPATLSLSPGERATLSCRASQSVSSYLAWYQQKPGQAPRLLIYDASNRATGIPARFSGSGSGTDFTLTISSLEPEDFAVYYCQQRSNWPPALTFGGGTKVEIKR
The term EC50 denotes the concentration giving half of the maximal effect. Low readings indicate a more potent agent, high ones a less potent agent. By IC50 is commonly meant the point on the concentration scale where inhibition reaches its midpoint. Read a high IC50 as weaker potency. B1: the concentration giving a half-maximal response (EC50) is 0.222 nM in [1]; 0.583 nM in test [2]; 0.565 nM in [3]; 0.55 nM in test [4]; 0.222 nM in [5]; 0.222 nM in test [6]. In addition, the EC50 in [7], in test [8], in test [9] and in [10] was 0.222 nM each time. In addition, the IC50 in test [11] is 2.41 nM; in test [12] it was 2.37 nM; in [13], roughly 2.53 nM; in test [14], 1.5 nM.

B2: PR000265 (antibody, V domains shown)
VH: EVQLVESGGGLVQPGGSLRLSCAASGFTFSSYWMSWVRQAPGKGLEWVANIKQEGSEKYYVDSVKGRFTISRDNAKNSLYLQMNSLRAEDTAVYYCARDRAVAGAFDIWGQGTMVTVSS
VL: DIQMTQSPSTLSASVGDRVTVTCRASQSIYIWLAWYQQKPGKAPNLLIYKASSLETGVPSRFSGSGSGTEFTLTISSLQPDDFATYYCQQYYGSSRTFGQGTKVEIKR
For the molecule B2, the concentration giving a half-maximal response (EC50) in test [15] was 0.11 nM; in test [16], 0.233 nM; in [17] it was 0.233 nM.
